Measured values taken from PMC7215387, “Comparison of Target Recognition by TRAF1 and TRAF2” (International Journal of Molecular Sciences, 2020).
Residues, ends and D or L forms follow the SMILES beside them.

Assays:
TRAF1 F347L mutant [1] = molecular target: T1, TRAF1 F347L mutant (Homo sapiens, UniProt Q13077, F347L); assay: Isothermal titration calorimetry (ITC), TRAF1 F347L mutant; type: binding; conditions: Supplementary Figure S2a,b
T1 construct: the TRAF1 TRAF domain (amino acid residues 220-416); 6xHis (C); made in house; host or cells: E. coli BL21 (DE3)
T1 sequence (Q13077 220-416 F347L): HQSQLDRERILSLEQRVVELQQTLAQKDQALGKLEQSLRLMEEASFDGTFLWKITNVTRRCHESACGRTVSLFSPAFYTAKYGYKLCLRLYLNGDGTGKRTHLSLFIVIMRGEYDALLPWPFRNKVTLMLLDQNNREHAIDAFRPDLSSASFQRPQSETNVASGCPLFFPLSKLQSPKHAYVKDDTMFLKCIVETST
Description: To understand how TRAF1 binds with higher affinity to TANK and caspase-2, we compared the amino acid sequence of the receptor-binding hot spots on TRAF1 and TRAF2. There are three well-known hot spots in TRAFs (Figure 5a). Based on the sequence comparison, two amino acid residues in TRAF1, F347 of hot spot1 and A369 of hot spot2, were not conserved in TRAF2 (Figure 5b). As the two non-conserved amino acid residues of TRAF1 may generate different conditions for receptor-binding regions and affect its affinity for various receptors, we compared the receptor-binding regions between TRAF1 and TRAF2 by comparing the TRAF1:TANK structure with the TRAF2:latent membrane protein 1 (LMP1) structure (Figure 5c). […] S454 of TRAF2 was not critical for the formation of an H-bond cluster, unlike residues S453 and S455, which were closely located to the Q at the P0 position of the receptor peptide. […] However, F347 on TRAF1 (corresponding to L432 on TRAF2) was critical for determining receptor preference and binding affinity by contributing to the formation of a stable hydrophobic pocket in the hot spot1 motif.
A NanoITC (TA Instruments) was used for isothermal titration calorimetry experiments. […] Binding isotherms were analyzed by using the software provided by TA Instruments. […]

TRAF1 F347L mutant [2] = molecular target: TRAF1 F347L mutant (UniProt Q13077); assay: ITC; NanoITC; peptide (1 mM) injected into the cell with TRAF domain (~20 uM); PBS; 15 °C; 25 injections; single site model
[3] = molecular target: T2, TRAF2 TRAF domain (amino acid residues 305-501) (UniProt Q12933 305-501); assay: as above; conditions: both partners purified
T2 construct: TRAF2 (TNF receptor-associated factor 2), TRAF domain, residues 305-501; it speaks of 'the three subunits of TRAF2'; source: E. coli BL21 (DE3), purified (Ni-NTA, SEC); not shown: His6, C-terminal, kept
T2 sequence (looked up): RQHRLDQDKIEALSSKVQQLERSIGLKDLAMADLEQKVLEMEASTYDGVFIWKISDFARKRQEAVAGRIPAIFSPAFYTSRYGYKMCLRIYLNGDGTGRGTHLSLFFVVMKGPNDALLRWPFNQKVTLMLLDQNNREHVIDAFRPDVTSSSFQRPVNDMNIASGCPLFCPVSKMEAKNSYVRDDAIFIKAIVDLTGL

[4] = molecular target: T3, TRAF1 TRAF domain (amino acid residues 220-416) (UniProt Q13077 220-416); assay: as above; conditions: both partners purified
T3 construct: TRAF1 (TNF receptor-associated factor 1), TRAF domain, residues 220-416; it speaks of 'trimeric TRAF1'; source: E. coli BL21 (DE3), purified (Ni-NTA, SEC); not shown: His6, C-terminal, kept
T3 sequence (looked up): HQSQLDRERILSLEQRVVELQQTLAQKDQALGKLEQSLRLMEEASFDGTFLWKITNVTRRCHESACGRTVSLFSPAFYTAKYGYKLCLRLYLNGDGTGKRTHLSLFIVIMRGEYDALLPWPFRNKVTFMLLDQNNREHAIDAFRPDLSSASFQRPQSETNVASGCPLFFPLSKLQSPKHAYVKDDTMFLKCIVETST

[5] = molecular target: T2, TRAF2 TRAF domain (amino acid residues …); assay: SPR; Biacore T200; His-tagged TRAF domain held on Ni-NTA chip; TRADD-N 0.39-3.125 uM flowed over in PBS, 30 uL/min; conditions: both partners purified
[6] = molecular target: T3, TRAF1 TRAF domain (amino acid residues …); assay: as above; conditions: both partners purified
TRAF2 S454A mutant = TRAF2 S454A mutant (UniProt Q12933); assay: ITC; TRADD with TRAF2 S454A mutant; who was titrated and conditions not told for this experiment

With `CC[C@H](C)[C@H](NC(=O)[C@@H]1CCCN1C(=O)[C@@H](NC(=O)[C@@H](N)CO)C(C)C)C(=O)N[C@@H](CCC(N)=O)C(=O)N[C@@H](CS)C(=O)N[C@H](C(=O)N[C@@H](CC(=O)O)C(=O)N[C@@H](CCCCN)C(=O)N[C@H](C(=O)O)[C@@H](C)O)[C@@H](C)O` [TANK] (H-SVPIQCTDKT-OH) the Kd (TRAF1 F347L mutant [1]) was about 15 µM.

B1: caspase-2 peptide (TAQEM) (peptide)
peptide: TAQEM
notes: source: synthetic peptide (Peptron)
B1 gave a Kd (TRAF1 F347L mutant [2]) of 265 µM, a Kd [3] of 117 µM and a Kd [4] of 86.9 µM.

B2: N-terminal domain of TRADD (TRADD-N, amino acid residues 1-163) (domain or fragment, UniProt Q15628 1-163, looked up)
chain: MAAGQNGHEEWVGSAYLFVESSLDKVVLSDAYAHPQQKVAVYRALQAALAESGGSPDVLQMLKIHRSDPQLIVQLRFCGRQPCGRFLRAYREGALRAALQRSLAAALAQHSVPLQLELRAGAERLDALLADEERCLSCILAQQPDRLRDEELAELEDALRNLK
notes: TRADD (tumor necrosis factor receptor type 1-associated death domain protein), N-terminal domain, residues 1-163; Cloned into pET24a by NdeI and XhoI; source: E. coli, purified (almost identical to the method for TRAF1 and TRAF2; SEC in 20 mM Tris-HCl pH 8.0, 150 mM NaCl)
B2 was tested, and the Kd [5] was 0.018 µM, the Kd [6] was 0.082 µM and the Kd (TRAF2 S454A mutant) was 0.055 µM.

B3: TANK peptide (SVPIQCTDKT) (peptide)
peptide: SVPIQCTDKT
notes: as for B1
B3 was tested, and the Kd [3] was 11.7 µM and the Kd [4] was 2.5 µM.
